The values that follow come from article PMC8791637.

The target in experiment [1] is Focal adhesion kinase (UniProt Q05397).
The target of experiment [2] is N-WASP (UniProt O00401).
The target of experiment [3] is Nck (UniProt P16333).
For experiment [4], the target named is phosphorylated Nephrin (UniProt O60500).
Experiment [5] concerns the target Focal adhesion kinase (UniProt Q05397). This is another data set of the same source.
Experiment [6] deals with His6-sumo-kindlin (UniProt Q96AC1).
Sequence of His6-sumo-kindlin (UniProt Q96AC1) (Q96AC1 whole entry): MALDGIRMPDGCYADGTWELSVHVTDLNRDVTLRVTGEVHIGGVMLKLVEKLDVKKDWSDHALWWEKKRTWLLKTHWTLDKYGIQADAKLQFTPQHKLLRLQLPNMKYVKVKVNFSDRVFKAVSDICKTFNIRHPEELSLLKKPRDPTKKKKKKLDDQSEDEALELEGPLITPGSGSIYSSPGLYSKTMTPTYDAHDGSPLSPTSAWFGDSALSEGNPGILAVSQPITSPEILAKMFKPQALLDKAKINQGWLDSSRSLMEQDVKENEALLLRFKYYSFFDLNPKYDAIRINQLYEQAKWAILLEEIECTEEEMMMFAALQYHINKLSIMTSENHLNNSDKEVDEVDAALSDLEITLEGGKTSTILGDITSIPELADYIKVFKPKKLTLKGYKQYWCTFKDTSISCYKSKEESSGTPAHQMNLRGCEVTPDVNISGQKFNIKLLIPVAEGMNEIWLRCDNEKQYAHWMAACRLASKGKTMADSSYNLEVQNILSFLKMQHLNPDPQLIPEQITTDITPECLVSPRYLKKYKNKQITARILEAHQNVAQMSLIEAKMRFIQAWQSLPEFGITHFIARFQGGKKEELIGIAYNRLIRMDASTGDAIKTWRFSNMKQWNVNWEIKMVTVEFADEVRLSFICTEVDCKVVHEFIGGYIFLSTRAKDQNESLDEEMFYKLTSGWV

Sequence of His6-sumo-kindlin (from UniProt Q96AC1 1-680) (natural protein) (Q96AC1 whole entry): as above
Sequence of β1 integrin cytoplasmic tail-GFP (P05556 752-798): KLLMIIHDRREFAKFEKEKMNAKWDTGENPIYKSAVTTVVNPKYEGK
Sequence of Focal adhesion kinase (UniProt Q05397) (Q05397 whole entry): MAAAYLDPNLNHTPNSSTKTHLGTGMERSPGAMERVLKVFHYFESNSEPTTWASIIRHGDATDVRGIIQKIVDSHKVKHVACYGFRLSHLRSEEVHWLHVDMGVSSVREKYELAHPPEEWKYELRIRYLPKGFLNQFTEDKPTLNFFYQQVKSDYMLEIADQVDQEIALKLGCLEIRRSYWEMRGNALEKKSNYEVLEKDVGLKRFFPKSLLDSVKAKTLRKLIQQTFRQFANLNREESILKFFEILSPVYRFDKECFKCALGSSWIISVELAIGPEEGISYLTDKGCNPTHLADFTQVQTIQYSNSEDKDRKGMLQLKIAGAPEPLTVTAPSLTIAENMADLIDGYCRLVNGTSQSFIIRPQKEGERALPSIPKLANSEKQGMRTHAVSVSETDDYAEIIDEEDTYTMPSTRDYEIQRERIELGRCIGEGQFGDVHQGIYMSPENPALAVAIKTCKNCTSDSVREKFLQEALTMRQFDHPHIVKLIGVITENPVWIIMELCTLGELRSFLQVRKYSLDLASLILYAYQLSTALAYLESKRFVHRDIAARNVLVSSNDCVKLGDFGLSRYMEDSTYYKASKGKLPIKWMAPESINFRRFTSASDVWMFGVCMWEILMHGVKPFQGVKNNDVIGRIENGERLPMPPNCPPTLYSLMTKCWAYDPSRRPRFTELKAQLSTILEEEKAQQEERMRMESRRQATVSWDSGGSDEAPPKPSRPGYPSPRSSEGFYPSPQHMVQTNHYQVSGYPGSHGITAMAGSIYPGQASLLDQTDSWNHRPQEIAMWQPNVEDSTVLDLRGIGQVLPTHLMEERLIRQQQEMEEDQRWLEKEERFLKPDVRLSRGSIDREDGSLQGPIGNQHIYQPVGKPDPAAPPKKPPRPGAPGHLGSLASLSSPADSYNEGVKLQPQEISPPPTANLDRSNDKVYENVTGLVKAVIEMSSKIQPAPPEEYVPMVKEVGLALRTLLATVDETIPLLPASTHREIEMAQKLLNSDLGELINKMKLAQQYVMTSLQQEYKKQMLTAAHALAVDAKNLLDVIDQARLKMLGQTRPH
Sequence of Focal adhesion kinase (from UniProt Q05397 1-1052) (enzyme) (Q05397 whole entry): as above
Sequence of Paxillin (P49023 whole entry): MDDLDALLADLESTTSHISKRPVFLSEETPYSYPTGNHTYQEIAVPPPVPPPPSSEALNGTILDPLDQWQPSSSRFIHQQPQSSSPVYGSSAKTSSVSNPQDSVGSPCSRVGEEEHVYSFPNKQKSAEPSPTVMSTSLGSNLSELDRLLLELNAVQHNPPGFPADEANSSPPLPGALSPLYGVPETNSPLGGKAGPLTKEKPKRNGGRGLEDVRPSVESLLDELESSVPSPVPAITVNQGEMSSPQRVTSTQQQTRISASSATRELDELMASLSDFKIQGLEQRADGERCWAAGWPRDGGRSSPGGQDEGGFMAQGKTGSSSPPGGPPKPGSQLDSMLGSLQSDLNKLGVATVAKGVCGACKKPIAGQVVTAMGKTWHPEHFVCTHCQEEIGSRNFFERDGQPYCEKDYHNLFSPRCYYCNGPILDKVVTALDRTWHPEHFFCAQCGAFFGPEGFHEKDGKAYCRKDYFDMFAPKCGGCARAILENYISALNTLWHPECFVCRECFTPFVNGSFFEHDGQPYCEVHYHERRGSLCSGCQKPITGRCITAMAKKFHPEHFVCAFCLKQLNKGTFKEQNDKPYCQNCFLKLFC
Sequence of phosphorylated Nephrin (O60500 23-1241): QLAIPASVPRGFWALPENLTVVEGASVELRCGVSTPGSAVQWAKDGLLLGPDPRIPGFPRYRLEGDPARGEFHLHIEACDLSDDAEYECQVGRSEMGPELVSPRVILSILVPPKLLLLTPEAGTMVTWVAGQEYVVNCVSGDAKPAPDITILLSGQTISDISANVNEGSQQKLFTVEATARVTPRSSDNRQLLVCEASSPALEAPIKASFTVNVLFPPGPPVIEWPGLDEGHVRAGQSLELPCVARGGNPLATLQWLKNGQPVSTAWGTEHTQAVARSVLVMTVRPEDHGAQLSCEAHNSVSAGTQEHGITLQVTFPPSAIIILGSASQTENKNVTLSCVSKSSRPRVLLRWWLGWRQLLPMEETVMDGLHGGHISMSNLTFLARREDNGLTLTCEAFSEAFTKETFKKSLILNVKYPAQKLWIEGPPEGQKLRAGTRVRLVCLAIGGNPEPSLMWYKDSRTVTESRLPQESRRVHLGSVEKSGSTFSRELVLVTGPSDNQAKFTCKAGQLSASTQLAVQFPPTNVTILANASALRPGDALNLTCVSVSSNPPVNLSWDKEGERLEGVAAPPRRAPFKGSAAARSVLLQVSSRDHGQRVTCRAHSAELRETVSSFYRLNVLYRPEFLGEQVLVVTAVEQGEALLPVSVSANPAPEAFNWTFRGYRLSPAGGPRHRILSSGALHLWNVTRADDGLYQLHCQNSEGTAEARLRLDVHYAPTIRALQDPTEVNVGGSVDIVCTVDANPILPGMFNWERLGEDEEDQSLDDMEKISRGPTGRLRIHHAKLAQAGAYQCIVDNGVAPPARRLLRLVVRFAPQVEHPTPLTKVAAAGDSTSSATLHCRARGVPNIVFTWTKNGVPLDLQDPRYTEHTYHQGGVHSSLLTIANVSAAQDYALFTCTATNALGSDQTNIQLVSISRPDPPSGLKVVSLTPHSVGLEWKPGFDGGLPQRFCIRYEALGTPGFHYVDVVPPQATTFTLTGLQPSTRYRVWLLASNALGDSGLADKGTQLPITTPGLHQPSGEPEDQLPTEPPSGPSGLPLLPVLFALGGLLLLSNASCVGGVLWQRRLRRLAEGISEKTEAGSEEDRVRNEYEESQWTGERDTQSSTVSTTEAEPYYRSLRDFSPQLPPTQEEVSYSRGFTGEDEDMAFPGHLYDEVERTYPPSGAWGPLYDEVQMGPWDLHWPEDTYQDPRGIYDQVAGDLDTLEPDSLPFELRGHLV
Sequence of N-WASP (O00401 whole entry): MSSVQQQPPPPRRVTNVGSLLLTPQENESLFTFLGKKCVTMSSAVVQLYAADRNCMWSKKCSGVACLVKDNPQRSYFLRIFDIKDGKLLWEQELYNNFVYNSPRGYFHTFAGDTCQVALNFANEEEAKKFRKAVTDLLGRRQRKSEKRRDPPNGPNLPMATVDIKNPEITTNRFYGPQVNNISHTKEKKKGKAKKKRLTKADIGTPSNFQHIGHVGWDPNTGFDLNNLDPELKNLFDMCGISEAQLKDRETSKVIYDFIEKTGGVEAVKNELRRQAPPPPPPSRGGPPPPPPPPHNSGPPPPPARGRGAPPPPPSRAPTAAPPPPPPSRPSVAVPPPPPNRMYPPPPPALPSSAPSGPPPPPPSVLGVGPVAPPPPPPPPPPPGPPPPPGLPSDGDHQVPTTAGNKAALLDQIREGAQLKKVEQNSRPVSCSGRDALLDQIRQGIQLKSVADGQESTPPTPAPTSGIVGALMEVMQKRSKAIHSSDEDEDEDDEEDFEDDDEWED

In turn, “Focal adhesion kinase (from UniProt Q05397 1-1052) (enzyme)” came in with a solution turbidity (absorbance at 350 nm) with increasing concentrations of FAK; concentration from which turbidity rises in experiment [1] of 100 nM.
As to “His6-sumo-kindlin (from UniProt Q96AC1 1-680) (natural protein)”, the kindlin partition coefficient (PC) in droplets of 5 uM each phosphorylated Nephrin, Nck and N-WASP with 1 uM kindlin (10% Alexa546), lacking pCas in experiment [2], in experiment [3] and in experiment [4] was 1 throughout.
In experiment [5], “Paxillin (from UniProt P49023 1-591) (natural protein)” gave an FAK enrichment (partitioning) in droplets, 1 uM FAK with 1 uM paxillin against 1 uM FAK alone of 2 fold.
For “β1 integrin cytoplasmic tail-GFP (from UniProt P05556 752-798) (domain or fragment)”, the integrin-GFP partition coefficient (PC) in droplets of 1 uM each pCas, Nck, N-WASP, FAK, paxillin and β1 integrin tail with 1 uM kindlin (PC = 1.2 without kindlin) in experiment [6] amounted to 3.
